According to patent publication US20240279357A1 (THERINI BIO, published 2024):

How the values were obtained:
[1] = target: T1, human Fibrin (human fibrinogen clotted on the plate with thrombin and CaCl2) (human, UniProt P02671 36-629; P02675 45-491; P02679 27-437); experiment: ELISA on human fibrin formed on the plate
T1 construct: Made in the ELISA wells from the human fibrinogen by thrombin and CaCl2, 1 hour at 37 C, then dried
T1 sequence (looked up) 1: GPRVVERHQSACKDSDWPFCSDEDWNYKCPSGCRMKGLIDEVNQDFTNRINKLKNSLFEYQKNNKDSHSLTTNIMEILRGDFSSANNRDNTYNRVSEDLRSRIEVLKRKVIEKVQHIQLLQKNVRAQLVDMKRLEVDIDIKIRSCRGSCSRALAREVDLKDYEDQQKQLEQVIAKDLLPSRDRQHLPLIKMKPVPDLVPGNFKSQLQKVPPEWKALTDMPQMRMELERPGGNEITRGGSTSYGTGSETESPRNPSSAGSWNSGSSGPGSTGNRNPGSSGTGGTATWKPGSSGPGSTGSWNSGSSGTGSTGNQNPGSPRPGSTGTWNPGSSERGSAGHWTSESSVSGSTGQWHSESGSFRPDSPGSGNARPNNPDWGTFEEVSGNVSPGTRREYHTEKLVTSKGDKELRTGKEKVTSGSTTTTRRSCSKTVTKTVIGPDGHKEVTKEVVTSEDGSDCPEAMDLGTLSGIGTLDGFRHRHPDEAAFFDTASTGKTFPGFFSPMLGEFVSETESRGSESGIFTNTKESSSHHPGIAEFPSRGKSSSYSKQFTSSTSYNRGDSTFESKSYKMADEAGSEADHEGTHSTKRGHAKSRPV
T1 sequence (looked up) 2: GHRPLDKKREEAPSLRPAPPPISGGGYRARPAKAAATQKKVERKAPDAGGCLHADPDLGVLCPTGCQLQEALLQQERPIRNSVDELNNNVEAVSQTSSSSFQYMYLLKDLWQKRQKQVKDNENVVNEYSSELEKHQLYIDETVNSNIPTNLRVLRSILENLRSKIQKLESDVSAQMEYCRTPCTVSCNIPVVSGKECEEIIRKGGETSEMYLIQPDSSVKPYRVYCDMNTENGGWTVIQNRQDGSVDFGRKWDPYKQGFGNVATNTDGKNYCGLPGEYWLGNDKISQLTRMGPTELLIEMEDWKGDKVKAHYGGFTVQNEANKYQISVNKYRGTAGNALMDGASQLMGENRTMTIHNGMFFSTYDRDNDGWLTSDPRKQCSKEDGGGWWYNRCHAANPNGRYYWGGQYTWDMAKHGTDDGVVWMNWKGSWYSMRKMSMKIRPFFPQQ
T1 sequence (looked up) 3: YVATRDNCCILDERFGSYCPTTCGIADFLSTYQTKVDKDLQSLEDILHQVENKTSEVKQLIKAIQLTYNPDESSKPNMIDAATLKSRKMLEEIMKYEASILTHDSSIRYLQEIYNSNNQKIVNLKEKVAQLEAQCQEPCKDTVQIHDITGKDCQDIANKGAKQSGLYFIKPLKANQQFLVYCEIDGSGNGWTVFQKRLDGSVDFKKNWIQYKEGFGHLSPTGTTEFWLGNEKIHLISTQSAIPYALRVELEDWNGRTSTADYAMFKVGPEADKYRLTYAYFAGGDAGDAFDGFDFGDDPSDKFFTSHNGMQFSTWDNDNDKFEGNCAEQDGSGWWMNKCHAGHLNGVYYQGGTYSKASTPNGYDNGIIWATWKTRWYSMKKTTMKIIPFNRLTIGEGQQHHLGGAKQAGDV
Method: (§1) The humanized antibodies affinity for fibrinogen, fibrin and P2 peptide were assessed by Enzyme-linked immunosorbent assays (ELISA)s (FIGS. 7-16). ELISAs for fibrinogen binding were performed using plasminogen-depleted human Fibrinogen (EMD/Calbiochem). […] IgG1-depleted Fibrinogen (FGN) in 20 mM HEPES/Saline buffer was added to each well of half of a 96-well Nunc Maxisorp™ ELISA plate. The ELISAs for fibrin binding were prepared by adding 50 mL of 20 mM HEPES/Saline buffer containing 14 mM CaCl₂, and 2 units thrombin to each well of the second half of the Nunc Maxisorp™ ELISA plate. 50 mL of 20 mg fibrinogen in 20 mM HEPES/Saline buffer were then added to a total volume of 100 mL. Plates were placed in a 37° C. incubator for 1 hour to allow fibrinogen to clot into fibrin and subsequently placed overnight into a plate dryer at 37° C. overnight. The ELISAs for P2 peptide were prepared by addition of […] of 30 mM P2 peptide in 20 mM HEPES/Saline buffer to each well of a 96-well Nunc Maxisorp™ ELISA plate. Plates were transferred to the plate dryer and dried overnight at 37° C. All ELISAs were preformed using Nunc MaxiSorp 96-well ELISA plates. Blocking was performed using 100 mL 5% BSA in DPBS are incubated at RT for 1 hour. Plates were washed 5× in DPBS containing 0.05% Tween-20 (EL406 was used for the addition of wash buffer only). 50 mL of primary antibodies was diluted in 0.5% BSA in DPBS, and the primary antibodies were added to the plates and incubated for 2 hours at 37° C. Plates were washed 5× in DPBS/Tween. 100 mL secondary antibodies were diluted in 0.5% BSA in DPBS. The secondary antibodies were then added to the plates and incubated for 1 hour at RT. Afterwards, plates were washed 5× in DPBS/Tween. 100 mL of TMB/E substrate solution was added, and the reaction was stopped after 5 minutes with 1N HCl.

[2] = target: T2, P2 peptide comprising SEQ ID NO: 31 (human fibrin γ377-395) (human); experiment: ELISA on coated P2 peptide
T2 construct: Bought (CPC Scientific 920712); also called human P2 peptide
T2 peptide: YSMKKTTMKIIPFNRLTIG
Method: as §1

[3] = target: T1, human Fibrin (human fibrinogen clotted …); experiment: ELISA on plate-coated human fibrin (fibrinogen clotted in the well with thrombin/CaCl2), antibody titrated, A450
Method: as §1, with “50 mL of primary antibodies was diluted in 0.5% BSA in DPBS, and the primary antibodies were added to the plates and incubated for 2 hours at 37° C. Plates were washed 5× in DPBS/Tween. 100 mL secondary antibodies were diluted in 0.5% BSA in DPBS. The secondary antibodies were then added to the plates and incubated for 1 hour at RT. Afterwards, plates were washed 5× in DPBS/Tween. 100 mL of TMB/E substrate solution was added, and the reaction was stopped after 5 minutes with 1N HCl.” left out

[4] = target: T3, plasminogen-depleted human Fibrinogen (EMD/Calbiochem) (human, UniProt P02671 20-629; P02675 31-491; P02679 27-437, limits assumed); experiment: ELISA on coated human fibrinogen; curve did not reach saturation
T3 construct: Bought protein, IgG-depleted, coated on ELISA plates; also called FGN
T3 sequence (looked up) 1: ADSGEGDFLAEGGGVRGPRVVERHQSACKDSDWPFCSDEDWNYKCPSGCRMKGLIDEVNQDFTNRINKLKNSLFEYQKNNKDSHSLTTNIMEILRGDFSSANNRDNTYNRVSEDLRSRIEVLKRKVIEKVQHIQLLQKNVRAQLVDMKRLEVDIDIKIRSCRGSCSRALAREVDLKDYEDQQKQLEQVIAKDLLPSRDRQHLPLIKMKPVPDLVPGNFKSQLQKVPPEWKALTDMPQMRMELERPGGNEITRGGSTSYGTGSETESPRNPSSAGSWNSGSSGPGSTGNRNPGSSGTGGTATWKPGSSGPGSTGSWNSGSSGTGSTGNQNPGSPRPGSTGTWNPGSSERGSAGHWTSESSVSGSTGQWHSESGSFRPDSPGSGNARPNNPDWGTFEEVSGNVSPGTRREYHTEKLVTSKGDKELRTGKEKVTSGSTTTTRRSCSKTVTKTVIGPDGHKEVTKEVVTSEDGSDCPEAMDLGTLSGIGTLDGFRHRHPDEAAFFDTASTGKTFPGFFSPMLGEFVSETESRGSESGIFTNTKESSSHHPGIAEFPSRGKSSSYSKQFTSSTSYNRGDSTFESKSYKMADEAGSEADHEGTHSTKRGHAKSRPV
T3 sequence (looked up) 2: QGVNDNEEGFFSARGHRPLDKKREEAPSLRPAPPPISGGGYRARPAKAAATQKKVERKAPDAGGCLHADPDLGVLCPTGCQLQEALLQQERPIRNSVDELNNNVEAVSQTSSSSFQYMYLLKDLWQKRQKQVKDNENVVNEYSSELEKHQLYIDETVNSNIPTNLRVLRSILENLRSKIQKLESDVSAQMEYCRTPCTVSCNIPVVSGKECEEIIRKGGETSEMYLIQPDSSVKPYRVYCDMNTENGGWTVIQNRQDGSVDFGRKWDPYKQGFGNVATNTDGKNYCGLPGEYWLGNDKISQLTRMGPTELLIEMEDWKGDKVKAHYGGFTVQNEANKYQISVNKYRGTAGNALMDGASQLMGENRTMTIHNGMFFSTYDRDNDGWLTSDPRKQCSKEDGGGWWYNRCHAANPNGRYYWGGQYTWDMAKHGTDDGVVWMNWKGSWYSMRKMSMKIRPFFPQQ
T3 sequence (looked up) 3: T1 sequence (looked up) 3
Method: as §1

[5] = target: T2, P2 peptide comprising SEQ ID NO: 31 …; experiment: ELISA on plate-coated human P2 peptide, antibody titrated, A450
Method: as §1, with “50 mL of primary antibodies was diluted in 0.5% BSA in DPBS, and the primary antibodies were added to the plates and incubated for 2 hours at 37° C. Plates were washed 5× in DPBS/Tween. 100 mL secondary antibodies were diluted in 0.5% BSA in DPBS. The secondary antibodies were then added to the plates and incubated for 1 hour at RT. Afterwards, plates were washed 5× in DPBS/Tween. 100 mL of TMB/E substrate solution was added, and the reaction was stopped after 5 minutes with 1N HCl.” left out

- EC50 [1]: ~82.6 nM
- EC50 [2]: ~29 nM
- EC50 (read off the curve) [3]: ~80 nM
- EC50 [4]: ~1600 nM
- EC50 (read off the curve) [5]: ~30 nM
B1: mouse monoclonal anti-fibrin antibody 5B8 (antibody, V domains shown)
VH: QVQLQQPGAELVRPGTSVKLSCKASGYTFTSYWIHWVKQRPGQGLEWIGLIDPSDSYTNYNQKFRGKATLTVDTSSSTAYMQLSSLTSEDSAVYYCASSDPTGCWGQGTTLTVSP
VL: DIVMTQAAFSNPITLGTSASMSCRSSKSLLHSSGITYLSWYLQKPGQSPQLLIYQMSNLASGVPDRFSSSGSGTDFTLRISRVEAEDVGVYYCAQNLELPLTFGAGTKLELK
notes: also called murine 5B8; Murine 5B8 (from client)
